Assay results reported in patent US20120093805A1.

What was measured:
[1] = target: human sugar chain-deficient CD27 expressed on Lec8 cells (human) (UniProt P26842); assay: flow cytometry (FCM) on CD27/Lec8-4 cells [A) (b]
[2] = target: human CD27 with normal O-linked sugar chains expressed on CHO/DG44 cells (human) (UniProt P26842); assay: flow cytometry (FCM) on CD27/DG44-4 cells [B) (b]
[3] = target: cynomolgus CD27 (C-terminal His tag) with normal O-linked sugar chains expressed on CHO/DG44 cells (cynomolgus); assay: flow cytometry (FCM) on cynomolgus CD27/DG44 cells; number printed beside the broken bar

Chain of human sugar chain-deficient CD27 expressed on Lec8 cells (human) (P26842 20-260 H233R limits assumed): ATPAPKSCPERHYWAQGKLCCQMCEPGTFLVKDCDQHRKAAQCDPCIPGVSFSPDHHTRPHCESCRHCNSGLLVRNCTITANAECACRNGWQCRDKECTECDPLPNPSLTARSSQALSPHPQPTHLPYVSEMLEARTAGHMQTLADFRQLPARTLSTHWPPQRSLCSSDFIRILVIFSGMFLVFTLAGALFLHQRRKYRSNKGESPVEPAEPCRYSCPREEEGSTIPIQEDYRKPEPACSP
Chain of human CD27 with normal O-linked sugar chains expressed on CHO/DG44 cells (human) (P26842 20-260 H233R limits assumed): as above

- EC50 (read off the curve) [1]: 0.1 µg/mL
- EC50 (read off the curve) [2]: 0.1 µg/mL
- Mean Fluorescence Intensity [3]: 133
Substance: Anti-CD27 Antibody (O323)
